The values below come from patent publication US20100068766A1, “COMPOSITION FOR CLEAVING AND/OR CONNECTING SINGLE STRAND DNA” (WASEDA UNIVERSITY, priority 2007, published 2010).

Test [1] has as its system φ×174 or M13 mp18 circular single-stranded DNA. The test can be described thus: Assay of catenation of single-stranded DNA. Type of test: biochemical. The following applies: 4 μM protein; 20 μM circular single-stranded DNA; 1 mM MgCl2; 37° C. On the procedure:
(§1) A φ×174 or M13 mp18 circular single-stranded DNA (20 μM) was incubated at 37° C. in 20 mM HEPES-NaOH (pH 7.5), 1 mM DTT, 1 mM MgCl2, and 0.1 mg/ml BSA. Thereafter, the sample was subjected to a deproteination treatment with 0.2% SDS and 1.3 mg/ml proteinase K. The obtained product was separated by 0.9% agarose gel electrophoresis, and a DNA band was then stained with SYBR Gold (Invitrogen).

The test system of test [2] is φ×174 supercoiled double-stranded DNA. The test can be described thus: Activity of Ev1 on supercoiled double-stranded DNA. Type of test: biochemical. The following applies: 4 μM Ev1; 10 μM φ×174 supercoiled and nicked double-stranded DNA. As to the method: Lanes 1 and 2 indicate the results obtained using a φ×174 circular single-stranded DNA. Lanes 3 and 4 indicate the results obtained using a M13 mp18 circular single-stranded DNA. In addition, lanes 1 and 3 indicate the results of control experiments in which no Ev1 protein was used, and lanes 2 and 4 indicate the results of experiments in which the Ev1 protein was used. […] A φ×174 circular single-stranded DNA (20 μM, lanes 1-3), or φ×174 supercoiled and nicked double-stranded DNA molecules (10 μM, lanes 4-6) were used to examine the influence of Ev1 (4 μM, lanes 2 and 5) and Escherichia coli-derived topoisomerase type I (5 units, lanes 3 and 6). Lanes 1 and 4 indicate the results of control experiments in which no Ev1 protein was used.
as §1

For test [3], the system named is φ×174 circular single-stranded DNA. The test is described as follows: DNA binding assay (single-stranded DNA). The following applies: Ev1 0.2-3.2 μM; 40 μM φ×174 circular single-stranded DNA; 37° C., 15 minutes. On the procedure: (§2) Subsequently, the binding ability of the Ev1 protein to DNA was analyzed. The Ev1 protein was mixed with a φ×174 circular single-stranded DNA (40 μM) or a φ×174 supercoiled double-stranded DNA (10 μM) in 10 μl of a reaction solution (20 mM HEPES (pH 7.5), 1 mM DTT, 1 mM MgCl2, and 100 mg/ml BSA), and the mixture was then reacted at 37° C. for 15 minutes. The reaction product was analyzed by 0.8% agarose gel electrophoresis (3 V/cm, 3 hours) using a 1×TAE (40 mM Tris-acetate and 1 mM EDTA) buffer. A band of DNA was stained with ethidium bromide (FIG. 3).

The test system of test [4] is φ×174 supercoiled double-stranded DNA. The test can be described thus: DNA binding assay (double-stranded DNA). Conditions: Ev1 0.2-3.2 μM; 10 μM φ×174 supercoiled double-stranded DNA; 37° C., 15 minutes. On the procedure:
as §2

Test [5] has as its target T1, Rad51B protein / Ev1 protein (Homo sapiens, UniProt O15315+Q9UI08).
T1 construct: in accordance with the protocols used in purification of the entire-length Ev1 protein; 6xHis (N, cleaved yes); made in house; host or cells: Ev1: E. coli BL21 (DE3) codon plus-RP
T1 sequence (Q9UI08 1-418 isoform Q9UI08-2): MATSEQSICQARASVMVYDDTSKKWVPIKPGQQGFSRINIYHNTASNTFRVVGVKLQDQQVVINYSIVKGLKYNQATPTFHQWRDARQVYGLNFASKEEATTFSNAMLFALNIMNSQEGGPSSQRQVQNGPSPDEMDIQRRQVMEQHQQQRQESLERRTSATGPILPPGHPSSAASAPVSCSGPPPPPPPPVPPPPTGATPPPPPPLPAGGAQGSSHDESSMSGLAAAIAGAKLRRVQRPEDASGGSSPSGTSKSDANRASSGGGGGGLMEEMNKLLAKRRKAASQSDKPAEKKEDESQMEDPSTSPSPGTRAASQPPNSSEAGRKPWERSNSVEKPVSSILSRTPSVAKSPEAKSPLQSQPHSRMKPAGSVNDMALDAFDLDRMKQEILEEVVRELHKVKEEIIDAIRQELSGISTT
T1 sequence (O15315 1-350 isoform O15315-1): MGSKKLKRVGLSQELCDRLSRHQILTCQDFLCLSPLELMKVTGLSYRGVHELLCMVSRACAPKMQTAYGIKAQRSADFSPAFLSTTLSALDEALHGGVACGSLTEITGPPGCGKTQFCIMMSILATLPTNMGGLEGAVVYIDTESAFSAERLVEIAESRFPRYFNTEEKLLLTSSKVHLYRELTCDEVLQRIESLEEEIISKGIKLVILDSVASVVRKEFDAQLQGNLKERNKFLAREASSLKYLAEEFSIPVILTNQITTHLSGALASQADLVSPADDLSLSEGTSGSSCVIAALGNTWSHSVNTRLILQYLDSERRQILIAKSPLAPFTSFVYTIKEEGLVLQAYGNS
The test can be described thus: Pull-down assay using Ev1- or Rad51B-bound beads. Type of test: binding. The following applies: Affi-Gel 10 beads, 10 μg protein, room temperature, 150 minutes. On the procedure:
Thereafter, the obtained mixture was incubated at 4° C. overnight. The Affi-Gel 10-Ev1 beads were washed 3 times with 500 μl of washing buffer 1 (20 mM potassium phosphate (pH 8.5), 30% glycerol, 700 mM NaCl, 5 mM 2-mercaptoethanol, and 0.05% Triton X-100). The Affi-Gel 10-Rad51B beads were washed 3 times with washing buffer 2 (20 mM HEPES-NaOH (pH 7.3), 30% glycerol, 90 mM NaCl, 2 mM 2-mercaptoethanol, 0.1% Triton X-100, 2 mM ammonium sulfate, and 0.1 mM EDTA). Thereafter, a 50% suspension of such Affi-Gel 10-protein was prepared, and it was then preserved at 4° C.
In order to carry out a binding assay, an Affi-Gel 10-protein suspension (30 μl) was incubated with 10 μg of an Ev1 or Rad51B protein at room temperature for 150 minutes. Affi-Gel 10-Ev1 beads were washed 4 times with 100 μl of buffer 1 (20 mM potassium phosphate (pH 8.5), 30% glycerol, 700 mM NaCl, 5 mM 2-mercaptoethanol, and 0.3% Triton X-100). Affi-Gel 10-Rad51B beads were washed 4 times with 100 μl of buffer 2 (20 mM HEPES-NaOH (pH 7.3), 30% glycerol, 90 mM NaCl, 2 mM 2-mercaptoethanol, 2 mM ammonium sulfate, 0.1 mM EDTA, and 0.35% Triton X-100). An SDS-PAGE sample treatment buffer (2×) was directly mixed with the washed beads, and the obtained mixture was then subjected to a heat treatment at 100° C. for 2 minutes. […]

The subject of a further test is Ev1 protein. The test is described as follows: Influence of Rad51B or Rad51 on catenation of single-stranded DNA by the Ev1 protein. Type of test: biochemical. The following applies: 4 μM Ev1 mutant plus 4 μM Rad51B protein. As to the method: Lanes 1 and 5 indicate the results of control experiments in which neither the Ev1 nor the Rad51B protein was used. Lanes 2 and 6 indicate the results of experiments that were carried out using a 4 μM Rad51B protein in the absence of the Ev1 protein. Lanes 3 and 7 indicate the results of experiments that were carried out using a 4 μM Ev1 protein in the absence of the Rad51B protein. Lanes 4 and 8 indicate the results of experiments that were carried out using a 4 μM Ev1 protein and a 4 μM Rad51B protein. Further, lanes 1-4 indicate the results of experiments that were carried out in the presence of ATP, and lanes 5-8 indicate the results of experiments that were carried out in the absence of ATP. […] Lanes 1 and 5 indicate the results of control experiments in which neither the Ev1 nor the Rad51 protein was used. Lanes 2 and 6 indicate the results of experiments that were carried out using a 4 μM Rad51 protein in the absence of the Ev1 protein. Lanes 3 and 7 indicate the results of experiments that were carried out using a 4 μM Ev1 protein in the absence of the Rad51 protein. Lanes 4 and 8 indicate the results of experiments that were carried out using a 4 μM Ev1 protein and a 4 μM Rad51 protein. Further, lanes 1-4 indicate the results of experiments that were carried out in the presence of ATP, and lanes 5-8 indicate the results of experiments that were carried out in the absence of ATP.
The Rad51B protein was mixed in a concentration of 0.5 to 8 μM with a 4 μM Ev1 protein, and the activity was then measured. Lane 1 indicates the results of a control experiment in which neither the Rad51B protein nor the Ev1 protein was added, and lane 8 indicates the results of a control experiment in which a 8 μM Rad51B protein was added and no Ev1 protein was added. Lanes 2-7 indicate the results of experiments in which the Rad51B protein was added in concentrations of 0 μM, 0.5 μM, 1.0 μM, 2.0 μM, 4.0 μM, and 8.0 μM, respectively, in the presence of 4 μM Ev1.
as §1

B1: Ev1 protein: human Ev1 protein (NCBI accession No. AAF21709), recombinant from E. coli, His tag removed (protein)
chain: T1 sequence (Q9UI08 1-418 isoform Q9UI08-2)
As to B1, in test [1], the “ssDNA catenation activity (multimer formation of circular single-stranded DNA)” value is “the circular single-stranded DNA formed a multimer”. For the same molecule, the “change of supercoiled double-stranded DNA” value in test [2] is listed as “the supercoiled double-stranded DNA was not particularly changed”. The “binding to single-stranded DNA” value in test [3] was “efficiently binds”. For the same molecule, the “binding to supercoiled double-stranded DNA” value in test [4] is given as “efficiently binds”. Further, the “binding of Ev1 protein to Rad51B (pull-down)” value in test [5] is listed as “directly binds to Rad51B”.

B2: Ev1 (1-221) mutant: Ev1 fragment of amino acid residues 1-221, comprises EVH1 and a proline-rich domain (protein, UniProt Q9UI08 1-221, looked up, fragment)
chain: MSEQSICQARASVMVYDDTSKKWVPIKPGQQGFSRINIYHNTASNTFRVVGVKLQDQQVVINYSIVKGLKYNQATPTFHQWRDARQVYGLNFASKEEATTFSNAMLFALNIMNSQEGGPSSQRQVQNGPSPDEMDIQRRQVMEQHQQQRQESLERRTSATGPILPPGHPSSAASAPVSCSGPPPPPPPPVPPPPTGATPPPPPPLPAGGAQGSSHDESSMS
With B2, the “ssDNA catenation activity (multimer formation of circular single-stranded DNA)” value in test [1] is “did not exhibit such ssDNA catenation activity”. The “ssDNA catenation activity with Rad51B protein added” value in the test with Ev1 protein is on record as “no activity was detected”.
